Results: PMC4240464

B1: CCL23 (ligand)
chain: RVTKDAETEFMMSKLPLENPVLLDRFHATSADCCISYTPRSIPCSLLESYFETNSECSKPGVIFLTKKGRRFCANPSDKQVQVCMRMLKLDTRIKTRKN
B2: CCL15 (ligand)
chain: QFTNDAETELMMSKLPLENPVVLNSFHFAADCCTSYISQSIPCSLMKSYFETSSECSKPGVIFLTKKGRQVCAKPSGPGVQDCMKKLKPYSI
B3: CCL1 (ligand)
chain: KSMQVPFSRCCFSFAEQEIPLRAILCYRNTSSICSNEGLIFKLKRGKEACALDTVGWVQRHRKMLRHCPSKRK
B4: CCL24 (ligand)
chain: VVIPSPCCMFFVSKRIPENRVVSYQLSSRSTCLKAGVIFTTKKGQQFCGDPKQEWVQRYMKNLDAKQKKASPRARAVAVKGPVQRYPGNQTTC
B5: CCL18 (ligand)
chain: AQVGTNKELCCLVYTSWQIPQKFIVDYSETSPQCPKPGVILLTKRGRQICADPNKKWVQKYISDLKLNA

What follows are binders tested against Evasin-4–Fc (Rhipicephalus sanguineus) (assay: SPR).
Binder B1 has a Kd of 232 pM.
B2 gave a Kd of 16 pM.
With B3 the Kd was 97 pM.
B4 showed a Kd of 708000 pM.
Work on B5 yielded a Kd of 3630 pM.

What follows are binders tested against Fc–Evasin-4 (Rhipicephalus sanguineus) (assay: SPR).
B1 was tested, and the Kd was 124 pM.
Work on B2 yielded a Kd of 40 pM.
B3 was tested, and the Kd was 276 pM.
B4 gave a Kd of 4840 pM.
B5 showed a Kd of 83 pM.
